The source of these data is a protein production outcome set (Wang et al. 2014).

A short description of this data set: label from the status in PepcDB records.
As for “MKIIAFYLPQFHQIKENDRWWGKGFTEWTNTKSAQPLFSGHYQPREPYQDFYYDLTTPSVRKWQAEIAKAYGIYGFCYYHYWFKGKRLLETPFNEVLKMKEPDFPFCLSWANEPWTKSWDGLDKHILMPQDYGDISDWKEHFDYLLQAFQDERYIYIDDKPLFIIYRPGHIPDCEKMLNYWNALARANGLKGIYFAETLNSFPLPNINGFDASIQFEPFYTIAHDSSSDINKVIYDSDMQLNVWDYDKVWMYILQRSLPKKKTFPGAFVDWDNTARRKNANSSIFVGSTPEKFTIYLSKQIHRTYSFYNSEFLFINAWNEWAEGTYLEPDKKYGFSYLEGVKNAIDRGMKAYKKDESFLEHHHHHH”, the protein production entry is “not failed”.

Turning to “MQENPSSSPFERRMESYQTQDSNDLHQLWRPREEDLEKLYRVPLGLTNEQLVEKLQLFSGEGEEKTLFVWVNRDLLGYRFLFWLTGMVLKEKQDGDVEHANKLEIIRDWVIESVVKIDRFLVRRVKQAEEKLKSLIQDYDSFKTSPEKKLLQITGQSEMDFVCLWVVVYTAVIAWKLRAAQTESSATHPSSIVVSECRHLLEQKDVFQRKTPKGLKLVAQLFDRSIEELNPRLKTLGDTDIREIGRLMTILELLPADPYRLLCRIACNLYDGAILLQYGVENYQIGSVRFGLDPYSFDSESKIPKLNNPFITIGK”, the protein production result is reported as “failed”.

For the sequence “MIDRRRVRHSFHRQALEYDAHAAVQKRVVERFLQILDDEVGSPLRILDVGAGTGLLARQLADCHPAALLSCVDLAPGMAATARQRLGSRALVAVADAEHLPFAGASFDCVVSTSTFQWLTTLDAAFGEVWRVLAPGGLFAFALFGHGTFHELKDSYRSALTAVGREDEDRTQRFFTEAEAGAALERTGFGVRRLCVEDEVEWHPDVPAFLRSVKRVGAGNASPLRGRGLAERRVMVEMMRVYGERYGGERGIPATYTVIYGVGVKSGRK”, the protein production result is on record as “failed”.

As for “MRRRDARPQGTGTAGPTGARHGEDADGTPRHMNAPKGLPLWLKIVTGVVSVALVAGVAFAAFWFIRLQTNITKAPLSAGETRNAGDPLVDDKTDRLQILILGSDTRDGKNAEYGSTEDSTGYGHSDVMMLLDISADNKRVNVLSFPRDLLVDVPQCTDRTNNQTFPARSGVMINEAMAEAGIGCAVDTVNQLTGLEIDHFMMADFNAVKELSHAVGGVNVCVSDPVFDPDSRLRLAKGDSLVEGEQALAFLRTRHAFGDGGDLGRIKGQQAFLSSLTRKLKDEGTLGNPQRLLQIADVVTQNLTVDEGLASVPSLLTIGGRLKDIDVSKVAFVAVPTQAAAADINRLELIEPQASQLFAALRADLDLTTPGATAPPAPSESPAPQPTATTPPAPAYDKAIQPVAVANGSGVATRAQELMTVLTGNGFAQTVSYLANPVDQTVLYYGPGFADVAADVATLFGIPAAQVQEAPGVAGVQLYVGTDFSSGTAYGAASVPSDVVNQTANDAVCQQVNPLYIDQQ”, the protein production result is “failed”.

For the sequence “YTPMSDLGQQGLFDITRTLLQQPDLASLSEALSQLVKRSALADSAGIVLWQAQSQRAQYYATRENGRPVEYEDETVLAHGPVRRILSRPDALHCNFHEFTETWPQLAASGLYPEFGHCCLLPLAAEGRIFGGCEFIRQEDR”, the protein production entry is on record as “failed”.

With “MPKSMGMAVAVPVTLAVIAAGGAGVGAYMYNERNLALEELARQSELSGSIATLETEVAGLTSQVKAAEGQLGDLNGQLEAAKAELAEVQGQHDRLSSELEPMRAEIASFDSRKAEAEESTAKAIADFQAADARLKELTDREDNLRATVSKLAAEVQDLDRRMEGLRAESGALVAAAQSAARQRTDLQGMVETLAGLLATRSEELVQLERRIGEQDLKVPAAGPAPLAAAAGAASQAPDGAGAAEPAAKEAETAAPETDAAGQTASQAEGSEAGSQPAAEPEAAEADGGNGAAEEPEAGAQDEGADAAAEPAPTGASEDAPDDAAAEGSTAEAEAAPEASGSTAGASDDAASQGSTAASEEPEAAPPSEAPAKAEAPDLGAGTYGIGPLFATFSPDGSFTMRNVELDTSASGKWEVTDGLLTLSDPEGGSGSSSFPMLCQLVKEAEALKLAKAQTGSCPLAGMEIARR”, the protein production result is reported as “failed”.

With “MISDLPDDLESEILSRVPTKSLAKLQTMGNTRLVVWDSSTGETRWIKPRTRFRNDDYYGLGYVNSKSSGHSFKILRSCYYRNDQKQWVAEFEIYEFGSDTWRVLDYFTHDYGVFSSGGPLKRNTYWVAGDKEMGMFMLYFDFTRERFGHFPLPFKSFNREDTASLSVVREEKLSVLHQKILEFSNEMKIWLTNKIDETIELSWSNFVLTVDYDKFNLPSVVNVASFLLDEENKVAVCSDIDVDDENRTRVYVVGEDIYKQVYKDTTKASYFNCSTSCSIYW”, the protein production entry is “failed”.
